Laboratory results from patent publication US20220228157A1, “GENE EDITING IN DIVERSE BACTERIA” (priority 2019, published 2022).
Residue numbers refer to the chain shown, from its start. Numbers in names are those of the source.

Columns and labels:
L. lactis = assay: Allelic recombination frequency, selective vs non-selective plates; assay type: cell-based, Lactococcus lactis; conditions: for Function of dominant negative MutL: co-expressed with PapRecT and PaSSB; for Genome editing efficiency lower than Redβ with EcSSB: co-expressed with Redβ; for Editing efficiency with chimeric SSB: co-expressed with the RecT
Protocol: Four variants known to enable high genome editing efficiency were selected (Redβ and PapRecT in E. coli, LrpRecT in L. lactis, and MspRecT in M. smegmatis), and tested codon optimized versions of all four in both E. coli (gram-negative), and L. lactis (gram-positive). Genome editing efficiency was measured by introducing oligos encoding known antibiotic resistance mutations, and compared the antibiotic resistant cell counts to the total number of viable cells in the population (FIGS. 17E-17F). […] In L. lactis, LrpRecT was the only functional homolog, and improved oligo incorporation 7,700-fold, while the three other RecT variants were nearly non-functional, improving oligo incorporation less than 7-fold (FIG. 17H). No RecT protein functioned well both in E. coli and L. lactis.
A single colony of L. lactis was grown overnight to saturation. 500 μL of dense culture was inoculated into 5 mL of fresh media, supplemented with 500 mM sucrose and 2.5% (w/v) glycine, and grown for 3 hours. To induce gene expression of the pJP005 vector for recombineering experiments, the cells were grown for an additional 30 min after adding 1 ng/mL freshly diluted nisin, unless stated otherwise. For the optimized condition (FIG. 20B), 10 ng/mL nisin was used. Cells were pelleted at 4° C. by centrifugation at 5,000×g for 5 minutes and washed twice with 2 mL of ice-cold electroporation buffer (500 mM sucrose containing 10% (w/v) glycerol) by centrifugation at 13,200×g for 2.5 minutes. Cells were resuspended in 80 μL ice-cold electroporation buffer containing DNA and transferred to a pre-chilled 0.1 cm electroporation cuvette.
Electrocompetent cells were electroporated with 90-mer oligos at: 1 uM for E. coli, 50 μg for L. lactis, and 10 uM for C. crescentus. 70-mer oligos were used at 1 μg for M. smegmatis. All oligos were obtained from IDT and can be found under “Oligonucleotides for genome editing” in materials and methods. For dsDNA experiments L. lactis was electroporated with 1.5 μg purified linear dsDNA. Cells were electroporated using a Bio-Rad gene pulser set to 25 μF, 200 S2, and 1.8 kV for E. coli, 2.0 kV for L. lactis, and 1.5 kV for C. crescentus and to 1000Ω and 2.5 kV for M. smegmatis. Immediately after electroporation, cells were recovered in fresh media for 3 hours for E. coli, 1 hour for L. lactis, overnight for M. smegmatis and overnight for C. crescentus. L. lactis recovery media was supplemented with MgCl2 and CaCl2) at a concentration of 20 mM and 2 mM, respectively. E. coli recovery media was supplemented with carbenicillin. M. smegmatis recovery media was supplemented with hygromycin. C. crescentus recovery media was supplemented with 0.3% xylose and kanamycin. After recovery, the cells were serial diluted and plated on non-selective vs. selective agar plates to obtain approximately 50-500 CFU/plate. Colonies were counted using a custom script in Fiji, and allelic recombination frequency was calculated by dividing the number of colonies on selective plates, with the number of colonies on non-selective plates.

Staphylococcus aureus = assay: SSAP candidate enrichment; assay type: cell-based
Protocol: The editing efficiency of SSAP candidates was also tested in Agrobacterium tumefaciens and in Staphylococcus aureus using the methods described above.

B1: LlMutL.E33K: L. lactis MutL carrying the equivalent dominant negative mutation, SEQ ID NO: 513 (protein)
chain: MGKIIELNEALANQIAAGEVVERPASVVKELVKNSIDAGSSKIIINVEEAGLRLIEVIDNGLGLEKEDVALALRRHATSKIKDSADLFRIRTLGFRGEALPSIASVSQMTIETSNAQEEAGTKLIAKGGTIETLEPLAKRLGTKISVANLFYNTPARLKYIKSLQAELSHITDIINRLSLAHPEISFTLVNEGKEFLKTAGNGDLRQVIAAIYGIGTAKKMREINGSDLDFELTGYVSLPELTRANRNYITILINGRFIKNFLLNRAILEGYGNRLMVGRFPFAVLSIKIDPKLADVNVHPTKQEVRLSKERELMTLISKAIDETLSEGVLIPEALENLQGRAKEKGTVSVQTELPLQNNPLYYDNVRQDFFVREEAIFEINKNDNSDSLTEQNSTDYTVNQPETGSVSEKITDRTVESSNEFTDRTPKNSVSNFGVDFDNIEKLSQQSTFPQLEYLAQLHATYLLCQSKEGLYLVDQHAAQERIKYEYWKDKIGEVSMEQQILLAPYLFTLPKNDFIVLAEKKDLLHEAGVFLEEYGENQFILREHPIWLKETEIEKSINEMIDIILSSKEFSLKKYRHDLAAMVACKSSIKANHPLDAESARALLRELSTCKNPYSCAHGRPTIVHFSGDDIQKMFRRIQETHRSKAASWKDFE
Function of dominant negative MutL (L. lactis): enabled the efficient introduction of 1 bp pair changes

B2: SR081: SSAP candidate (protein)
chain: MSKEFYARLAAIQENLNAPKNQYNSFGKYKYRSCEDILEGVKPLLNGLFLSISDEVVLIGDRYYVKATATITDGENSHTATALAREEESKKGMDSAQVTGATSSYARKYCLNGLFGIDDAKDADTDEHKHQQNAAAKQSNPSPTPEQVLKAFTDAAMQKNTVEELKQAFAKAWKMLEGTPEQHKAQDVYNIRRDELEGAAA
modifications: Bacteriophage HK022
notes: SSAP candidate
Editing efficiency (enrichment) relative to other SSAP candidates (Staphylococcus aureus): increase in editing efficiency

B3: PF003: SSAP candidate (protein)
chain: MAENEKQALLQEENKSENVVSTVKRTALATNPFSDTDQFNNIFKMAQLISQSDMIPATYKGKPMNCVIALEQANRMGVSPLMVMQNLYVVKGVPSWSGQGCMMIIQGCGKFRDVDYVYSGEKGTDSRSCKVVATRISDGKRIEGTEITMQMVKSEGWISNTKWKNMPEQMLGYRAATFFARMYCPNELNGFATEGEAEDMNHKPQRIEAINVLGDTAHE
modifications: Clostridium sp FS41
notes: SSAP candidate
Editing efficiency (enrichment) relative to other SSAP candidates (Staphylococcus aureus): increase in editing efficiency

B4: SR033: SSAP candidate (protein)
chain: MADYEEQMLALQKPLQPDRVVWRVQQSGFSKQGKPWAMVLAYMDNRAVQERFDEVFGIAGWKNEFKTAPDGGTLCGISVKFGDEWVTKWDGAENTQVEAVKGGLSGSMKRAAVQWGVGRYLYDLPTSFAQTSLEKTDGWNKVFDKNSKKNFWWKNPQLPSWALPQNSKVQNTKADFTEEEIPNPPKLYVVGKDKKEFDEKKLQAVVNKMAIIAGKDYGASVDEQNDWLKMPLDEAYNDIEKFVDIKKEEQND
modifications: Lactococcus phage bIL286,Lactococcus lactis subsp lactis (strain IL1403) (Streptococcuslactis)
notes: SSAP candidate
Editing efficiency (enrichment) relative to other SSAP candidates (Staphylococcus aureus): increase in editing efficiency

B5: SR041: SSAP candidate (protein)
chain: MAKIKLTNVRIAFINNLRTPAEFEAGDGKFRYSATFLVEKGSANDKAIEAAIKSVAVEGWAKKADAMLESFRSNSNKFCYQNGDLKDFDGFEGNMYIAAHRKRDDGRPLLLDNVADPETGKPARLVDANGEWLAGKEGRIYAGCYVNATIDIYAQTKTNPGIRCGLMGVQYHGPGDSFSGASRANEDDFEATAPETEDELD
modifications: Burkholderia phage BcepC6B
notes: SSAP candidate
Editing efficiency (enrichment) relative to other SSAP candidates (Staphylococcus aureus): increase in editing efficiency

B6: SR024: SSAP candidate (protein)
chain: MAIDNQSTKVITGKVRLSYTHVFEPQENDSGDMKYSTAILIPKSDKETLRKIKAAVDAAKELGKSKWGGKIPANCKTPLRDGDEERPDDEAYAGHYFLNASSKNKPGVAKPIGKDGNGKTKFQEITDSTEVYSGCYAKVSLNFYPFDAKGNRGVAAGLNNIVKVQDGDFLGGRSSVNDDFANEDFDDIVDISDDDDFLN
modifications: Paenibacillus lactis 154
notes: SSAP candidate
Editing efficiency (enrichment) relative to other SSAP candidates (Staphylococcus aureus): increase in editing efficiency

B7: MutL.E32K from E. coli: dominant negative mismatch repair protein, SEQ ID NO: 515 (protein)
chain: MPIQVLPPQLANQIAAGEVVERPASVVKELVKNSLDAGATRIDIDIERGGAKLIRIRDNGCGIKKDELALALARHATSKIASLDDLEAIISLGFRGEALASISSVSRLTLTSRTAEQQEAWQAYAEGRDMNVTVKPAAHPVGTTLEVLDLFYNTPARRKFLRTEKTEFNHIDEIIRRIALARFDVTINLSHNGKIVRQYRAVPEGGQKERRLGAICGTAFLEQALAIEWQHGDLTLRGWVADPNHTTPALAEIQYCYVNGRMMRDRLINHAIRQACEDKLGADQQPAFVLYLEIDPHQVDVNVHPAKHEVRFHQSRLVHDFIYQGVLSVLQQQLETPLPLDDEPQPAPRSIPENRVAAGRNHFAEPAAREPVAPRYTPAPASGSRPAAPWPNAQPGYQKQQGEVYRQLLQTPAPMQKLKAPEPQEPALAANSQSFGRVLTIVHSDCALLERDGNISLLSLPVAERWLRQAQLTPGEAPVCAQPLLIPLRLKVSAEEKSALEKAQSALAELGIDFQSDAQHVTIRAVPLPLRQQNLQILIPELIGYLAKQSVFEPGNIAQWIARNLMSEHAQWSMAQAITLLADVERLCPQLVKTPPGGLLQSVDLHPAIKALKDE
Function of dominant negative MutL (L. lactis): nonfunctional

B8: L1SSB C8:EcSSB (protein)
chain: MINNVVLVGRITRDPELRYTPQNQAVATFSLAVNRQFKNANGEREADFINCVIWRQQAENLANWAKKGALIGVTGRIQTRNYENQQGQRVYVTEVVADSFQMLESRSARDGMGGGASAGSYSAPSQSTNNTPRPQTNNNSATPNFGRDADPFGSSPMEMEDFDDDIPF
Genome editing efficiency lower than Redβ with EcSSB (L. lactis): ≤ 2.6 fold

B9: L1SSB C8:MsSSB (protein)
chain: B8 chain with D161G, F162A, D165E, I166P
Editing efficiency with chimeric SSB (L. lactis): completely recovered

B10: L1SSB C8:PaSSB (protein)
chain: B8 chain with D161S
Editing efficiency with chimeric SSB (L. lactis): completely recovered

B11: L1SSB C7:EcSSB (protein)
chain: MINNVVLVGRITRDPELRYTPQNQAVATFSLAVNRQFKNANGEREADFINCVIWRQQAENLANWAKKGALIGVTGRIQTRNYENQQGQRVYVTEVVADSFQMLESRSARDGMGGGASAGSYSAPSQSTNNTPRPQTNNNSATPNFGRDADPFGSSPMEIMEIFDDDIPF
Genome editing efficiency lower than Redβ with EcSSB (L. lactis): ≤ 5.9 fold

B12: L1SSB C7:MsSSB (protein)
chain: B11 chain with F163A, D166E, I167P
Editing efficiency with chimeric SSB (L. lactis): completely recovered

B13: L1SSB C7:PaSSB (protein)
chain: B11 chain
Editing efficiency with chimeric SSB (L. lactis): completely recovered
